The text below walks through data of patent US20250011448A1 (STAIDSON BIOPHARMA, published 2025).

Changes are numbered by the printed parent chain.

The target of assay [1] is T1, cynomolgus monkey TNFR2 extracellular domain with C-terminal 10×His tag (cynomolgus monkey, UniProt P20333 23-257 (human entry)).
T1 construct: also called cynoTNFR2-His; His-tag-cynoTNFR2
T1 chain: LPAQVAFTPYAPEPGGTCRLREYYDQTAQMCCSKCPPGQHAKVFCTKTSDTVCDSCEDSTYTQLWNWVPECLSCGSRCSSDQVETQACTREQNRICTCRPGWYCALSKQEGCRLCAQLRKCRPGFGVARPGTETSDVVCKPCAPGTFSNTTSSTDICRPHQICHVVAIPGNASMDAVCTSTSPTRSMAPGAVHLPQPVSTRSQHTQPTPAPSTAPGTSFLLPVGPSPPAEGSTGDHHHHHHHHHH
Put plainly: ELISA, plate coated with His-tagged TNFR2 ECD, serial dilution of chimeric IgG. How it is done: (§1) TNFR2 binding of purified recombinant chimeric antibodies: The huTNFR2, cynoTNFR2 antigen binding ELISA was performed on the purified recombinant chimeric antibodies. Briefly, 384-well, clear, flat bottom, high binding plates (VWR, cat #29444-096) were coated overnight at 4° C. with 1 μg/mL of huTNFR2 or cynomolgus monkey TNFR2-His in PBS. After removing the coating solution, the plates were blocked by adding blocking buffer and incubated at room temperature for 1 hour. Plates were then washed 3 times with wash buffer. Serial dilution of purified antibodies in PBS was added to individual well followed by incubation at room temperature for 1 hour. Plates were washed 3 times with wash buffer. Then 50 μL/well of goat anti hu Kappa —AP (Southern Biotech, cat #2061-04) at 1:3000 dilution or goat anti human IgG Fc-AP at 1:3000 dilution in ELISA diluent was added, incubated at room temperature for 1 hour, washed 5 times with wash buffer and developed for 30 minutes with 50 μL/well of pNPP substrate. Plates were analyzed with a Bio-TEK at 405 nm. The chimeric TNFR2 antibodies were tested positive for binding to huTNFR2 and cynoTNFR2. The TNFR2 binding EC50 values are shown in Table 6, FIG. 1A (for huTNFR2) and FIG. 1B (for cynoTNFR2).
A general note: An ELISA detects its analyte on a solid surface through an enzyme-linked reagent.

The target of assay [2] is T2, human TNFR2 extracellular domain with C-terminal 10×His tag (human, UniProt P20333 23-257).
T2 construct: also called huTNFR2-His; His-tag-huTNFR2
T2 sequence: T1 chain with G16S, P36S, Q117P, H164N, A210E, G216S, V223M
Described as above. How it is done: as §1

Assay [3] deals with T3, human TNFR2 extracellular domain fused to human IgG1 Fc (human, UniProt P20333 23-257).
T3 construct: also called TNFR2-huFc; huTNFR2; not shown: C-terminal human IgG1 Fc
T3 sequence: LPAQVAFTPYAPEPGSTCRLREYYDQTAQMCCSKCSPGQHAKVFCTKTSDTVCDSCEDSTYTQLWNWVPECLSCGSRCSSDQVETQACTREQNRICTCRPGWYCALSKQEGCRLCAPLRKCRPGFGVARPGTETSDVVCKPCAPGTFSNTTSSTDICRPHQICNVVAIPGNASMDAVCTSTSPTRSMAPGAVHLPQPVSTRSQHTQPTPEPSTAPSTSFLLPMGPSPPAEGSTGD
Description: blocking ELISA: antibody pre-mixed with huTNFR2, binding of huTNFR2 to coated human TNFα read out. The method, then: 96-well round bottom ELISA plates were coated overnight at 4° C. with 50 μL/well of 0.5 μg/mL human TNFα recombinant protein (R&D system, Cat #210-TA-100) in coating buffer. After removing the coating solution, blocking buffer was added into the plates followed by incubation at room temperature for 1 hour in order to block unspecific binding. During the blocking period, hybridoma antibodies samples were mixed with 0.5 μg/mL TNFR2-huFc at a 1:1 volume ratio and incubated at room temperature for another 1.5 hours. Then 50 μL/well of antigen-antibody mix solution was transferred into TNFα coated wells and incubated at room temperature for 1.5 hours. Plates were then washed 5 times with wash buffer. Then, 50 μL/well of goats anti-human IgG Fc-AP (Southern Biotech, cat #2014-04) at 1:2000 dilution in assay buffer was added, incubated at room temperature for 1 hour, washed 4 times with wash buffer and developed for 30 minutes with 50 μL/well of pNPP substrate. Plates were analyzed with a Synergy HT (Bio-TEK) at 405 nm. Parental hybridomas with the desired human and cynoTNFR2 binding as well as the ability to block human TNFR2 and human TNFα binding were prioritized for subcloning and further characterization. Subcloning was carried out with limited dilution and visual inspection was performed to ensure clonality. Hybridoma subclones were screened with the same binding and blocking assays and selected positive hits were cryopreserved.
TNFR2 blocking by purified recombinant chimeric antibodies: Human TNFR2 blocking ELISA was performed on purified recombinant chimeric antibodies following the same protocol as described above, except that 50 μL/well of serial dilution of purified antibodies (starting at 10 μg/mL, 1:3 dilution) in assay buffer was added into the reaction. The blocking IC₅₀ value represents the antibody concentration that inhibited 50% of huTNFR2 or cynoTNFR2 binding to coated human TNFα or cynomolgus monkey TNFα.

The target in assay [4] is T1, cynomolgus monkey TNFR2 extracellular …. Description: BLI (Octet RED96), antibody captured on AHC biosensor, His-tagged TNFR2 in solution, 1:1 model. Background: In BLI a coated tip is dipped into the sample, and binding shifts an interference pattern.
In assay [5] the target is T2, human TNFR2 extracellular domain with …. Described as above.

B1: 15H10 chimeric anti-TNFR2 antibody (antibody, V domains shown)
VH: DVQLQESGPGLVTPSQSLSLTCSVTGYSITSGYYWNWIRQFPGNKLEWMGYITYDGNNNYNPSLKSRFSITRDTSKNQFFLKLNSVTSEDTATYYCARGDYGDSAMDYWGQGTSVTVSS
VL: EIVLTQSPAITAASLGQKVTITCSASSGVNYMHWYQQKSGTSPKPWIYEISKLASGVPARFSGSGSGTSYSLTISSMEAEDAAIYYCQQWNYPLITFGAGTKVELK
notes: Chimeric: mouse variable domains with human constant regions, made as recombinant IgG1
The term EC50 denotes the midpoint of the concentration-response curve. Usually IC50 stands for the point on the concentration scale where inhibition reaches its midpoint. A word on the Kd: it is the concentration at which binding is half-saturated. Broadly, the koff is the rate constant with which the complex falls apart. One may read the kon as a measure of how fast the partners come together. As to B1, the concentration giving a half-maximal response (EC50) in assay [1] came to 50 pM; in assay [2], 51 pM. For the same molecule, in assay [3], the IC50 was 584 pM. Besides, the figures for the Kd in assay [4] and in assay [5] were 1420 pM and 453 pM, respectively. The koff in assay [4] amounted to 0.000368 s⁻¹; in assay [5] it was 2.58e-05 s⁻¹. Also, the association rate constant (kon) in assay [4] was 259000 M⁻¹ s⁻¹; in assay [5], 57100 M⁻¹ s⁻¹.

B2: 11C1 chimeric anti-TNFR2 antibody (antibody, V domains shown)
VH: B1 VH with Q5R, F41I, N61D, S66N, F68I, K82T
VL: B1 VL with G28S, N30S, T73I, V103L
notes: as for B1
For B2, the EC50 in assay [1] was found to be 57 pM. The same molecule showed an EC50 in assay [2] of 50.8 pM. In addition, the IC50 in assay [3] was determined as 723 pM. In addition, in assay [5], the Kd was 2460 pM, the off-rate (koff) was 0.000258 s⁻¹ and the kon is 105000 M⁻¹ s⁻¹.

B3: 85G8.4 chimeric anti-TNFR2 antibody (antibody, V domains shown)
VH: EVQLQQSGPELVKPGASVKISCKTSGYTFTDFNMDWVKQSHGKSLEWIGYINPNNGDAAYNQKFKSKATLTVDKSSNTAYMELHSLTSDDSAVYYCARWGWAFAYWGQGTLVTVSA
VL: DIVMTQSHKIMSTSVGDRVSITCKASQDVKTAVAWYQQKPGQSPKLLIYATSYRYTGVPDRFTGSGSGTDFTFTISTVQAEDLAVYYCQQHYSIPYTFGGGTKLEIK
notes: as for B1
For the molecule B3, the concentration for a half-maximal effect (EC50) in assay [1] came out at 48.8 pM; in assay [2], 39 pM. The IC50 in assay [3] was 583 pM. In addition, the Kd is 1300 pM in assay [4] and 1950 pM in assay [5]. The off-rate (koff) was 0.000534 s⁻¹ in assay [4] and 0.000251 s⁻¹ in assay [5]. Besides, the kon was 412000 M⁻¹ s⁻¹ in assay [4] and 129000 M⁻¹ s⁻¹ in assay [5].

B4: 29G3 chimeric anti-TNFR2 antibody (antibody, V domains shown)
VH: EVMLVESGGASVKPGGSLKLSCAASGFTFSNFAMSWVRQTPEKRLEWVATIRSGDNYSYYSDNVKGRFTISRDNARNTLYLQMSSLRSKDTSIYYCARNWDKVFDYWGQGTTLTVSS
VL: DIVLTQSPASLAVSLGQRATISCRASESVDSYGYSFMHWYQQKPGQPPKLLIYRASNLKSGIPARFSGSGSRTDFTLTINPVEADDVATYYCQQSNEDHTFGGGTKLEIK
notes: as for B1
On to B4, for which the 50% effective concentration (EC50) in assay [1] was 41.4 pM. In addition, in assay [2], a half-maximal response (EC50) required 29.3 pM. Further, the IC50 in assay [3] amounted to 505 pM. For the same molecule, in assay [4], the Kd came out at 1590 pM, the off-rate constant (koff) was 0.002 s⁻¹ and the kon came out at 1.26e+06 M⁻¹ s⁻¹. In assay [5], this molecule returned an equilibrium dissociation constant (Kd) of 4530 pM, a koff of 0.00114 s⁻¹ and an on-rate (kon) of 251000 M⁻¹ s⁻¹.
